Laboratory results reported in IntAct's records for PubMed 10629049.

Experiments:
creb3_human CREB3 = creb3_human CREB3 (UniProt O43889)
po2f1_human POU2F1 = po2f1_human POU2F1 (UniProt P14859)
Chain of UniProt P14859 (P14859 whole entry): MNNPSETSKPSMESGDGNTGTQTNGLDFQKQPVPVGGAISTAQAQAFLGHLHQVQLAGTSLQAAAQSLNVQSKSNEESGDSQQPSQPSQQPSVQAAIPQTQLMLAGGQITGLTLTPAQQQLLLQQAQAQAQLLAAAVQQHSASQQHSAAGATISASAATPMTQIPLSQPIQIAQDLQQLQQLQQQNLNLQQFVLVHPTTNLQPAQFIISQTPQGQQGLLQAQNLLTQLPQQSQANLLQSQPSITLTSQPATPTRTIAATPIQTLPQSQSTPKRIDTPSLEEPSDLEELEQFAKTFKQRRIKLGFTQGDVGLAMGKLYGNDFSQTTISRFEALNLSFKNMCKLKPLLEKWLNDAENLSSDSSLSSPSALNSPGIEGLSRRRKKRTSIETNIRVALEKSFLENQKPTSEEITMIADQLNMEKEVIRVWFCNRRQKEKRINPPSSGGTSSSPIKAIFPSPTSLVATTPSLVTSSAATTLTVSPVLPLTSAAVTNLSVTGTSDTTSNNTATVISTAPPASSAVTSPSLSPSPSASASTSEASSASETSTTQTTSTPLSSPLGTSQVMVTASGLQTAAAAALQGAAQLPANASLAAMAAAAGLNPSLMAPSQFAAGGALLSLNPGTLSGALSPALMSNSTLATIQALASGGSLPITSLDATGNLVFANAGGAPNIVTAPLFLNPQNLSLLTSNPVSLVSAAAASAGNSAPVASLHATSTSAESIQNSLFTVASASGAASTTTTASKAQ

Chain of UniProt O43889 (O43889 whole entry): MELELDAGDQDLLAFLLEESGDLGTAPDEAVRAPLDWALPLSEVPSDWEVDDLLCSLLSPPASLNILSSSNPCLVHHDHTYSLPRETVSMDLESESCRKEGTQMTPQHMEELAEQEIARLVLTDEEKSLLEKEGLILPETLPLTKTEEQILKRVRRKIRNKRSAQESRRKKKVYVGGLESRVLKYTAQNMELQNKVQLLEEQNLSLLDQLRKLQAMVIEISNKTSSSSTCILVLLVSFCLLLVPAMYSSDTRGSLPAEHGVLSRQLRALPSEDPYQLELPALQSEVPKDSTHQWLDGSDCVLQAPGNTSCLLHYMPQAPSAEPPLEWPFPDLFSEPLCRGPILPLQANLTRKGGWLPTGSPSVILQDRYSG

Substance | effect of a mutation on the interaction (creb3_human CREB3) | effect of a mutation on the interaction (po2f1_human POU2F1)
Host cell factor 1 (Homo sapiens), P51610 C82D | decreasing interaction | –
Host cell factor 1 (Homo sapiens), P51610 E289A;W290A;K291A | decreasing interaction | decreasing interaction
Host cell factor 1 (Homo sapiens), P51610 P30S | decreasing interaction | –
Host cell factor 1 (Homo sapiens), P51610 P79S | decreasing interaction | –
Host cell factor 1 (Homo sapiens), P51610 P134S | decreasing interaction | decreasing interaction
Host cell factor 1 (Homo sapiens), P51610 P197S | decreasing interaction | –
Host cell factor 1 (Homo sapiens), P51610 P319S | decreasing interaction | –
Host cell factor 1 (Homo sapiens), P51610 R228D | decreasing interaction | –
Host cell factor 1 (Homo sapiens), P51610 R344A;K345A | – | decreasing interaction
Host cell factor 1 (Homo sapiens), P51610 S338A | decreasing interaction | –
